We go through 5 substances from paper PMC5391581.

For test [1], the target named is SV40 LT 131-627 cW393A (Simian Virus 40). The experiment in a line: SEC; Superdex 200 10/300 GL; 250 μg LT (0.8 μg/μL) incubated with 4 mM ATP and 1 mM MgCl2; 25 mM Tris pH 8.0, 250 mM NaCl, 0.5 mM TCEP; percent hexamer from peak areas; monomer to hexamer. (In general: Size exclusion chromatography separates by hydrodynamic size, large species first.)
Test [2] deals with SV40 Large Tumor Antigen (LT) 131-627, wild type (Simian Virus 40). In words: SEC; Superdex 200 10/300 GL; 250 μg LT (0.8 μg/μL) incubated with 4 mM UTP and 1 mM MgCl2; 25 mM Tris pH 8.0, 250 mM NaCl, 0.5 mM TCEP; percent hexamer from peak areas; monomer to hexamer.
The target is the same in test [3]. In words: SEC; Superdex 200 10/300 GL; 250 μg LT (0.8 μg/μL) incubated with 4 mM ATP and 1 mM MgCl2; 25 mM Tris pH 8.0, 250 mM NaCl, 0.5 mM TCEP; percent hexamer from peak areas; monomer to hexamer.
Test [4] concerns the target SV40 LT 131-627 cL557A (Simian Virus 40). The description is as above.
Test [5] addresses SV40 LT 131-627 cS430T (Simian Virus 40). The experiment in a line: SEC; Superdex 200 10/300 GL; 250 μg LT (0.8 μg/μL) incubated with 4 mM UTP and 1 mM MgCl2; 25 mM Tris pH 8.0, 250 mM NaCl, 0.5 mM TCEP; percent hexamer from peak areas; monomer to hexamer.
Test [6] shares this target. In words: SEC; Superdex 200 10/300 GL; 250 μg LT (0.8 μg/μL) incubated with 4 mM ATP and 1 mM MgCl2; 25 mM Tris pH 8.0, 250 mM NaCl, 0.5 mM TCEP; percent hexamer from peak areas; monomer to hexamer.
Test [7] has as its target SV40 LT 131-627 tK419A (Simian Virus 40). In words: SEC; Superdex 200 10/300 GL; 250 μg LT (0.8 μg/μL) incubated with 4 mM TTP and 1 mM MgCl2; 25 mM Tris pH 8.0, 250 mM NaCl, 0.5 mM TCEP; percent hexamer from peak areas; monomer to hexamer.
For test [8] the target is unchanged. In words: SEC; Superdex 200 10/300 GL; 250 μg LT (0.8 μg/μL) incubated with 4 mM ATP and 1 mM MgCl2; 25 mM Tris pH 8.0, 250 mM NaCl, 0.5 mM TCEP; percent hexamer from peak areas; monomer to hexamer.

As a reminder, the stoichiometry N is the number of molecules, sites or subunits per partner or assembly. As for “SV40 LT 131-627 cW393A (domain or fragment)”, in test [1], the percent hexamer formed (ATP + Mg++) stood at 97.9% and the stoichiometry N is 6.

In the case of “SV40 Large Tumor Antigen (LT) 131-627, wild type (domain or fragment)”, in test [2], the percent hexamer formed (UTP + Mg++) was found to be 69.4%. In test [3], this substance showed a stoichiometry N of 6.

Turning to “SV40 LT 131-627 cL557A (domain or fragment)”, in test [4], the percent hexamer formed (ATP + Mg++) was 99.9% and the stoichiometry N came to 6.

As to “SV40 LT 131-627 cS430T (domain or fragment)”, the percent hexamer formed (UTP + Mg++) in test [5] turned out to be 84.6%. Also, the stoichiometry N in test [6] amounted to 6.

For “SV40 LT 131-627 tK419A (domain or fragment)”, the decrease in hexamer formation compared to WT (TTP + Mg++) in test [7] was 25.2%. Moreover, in test [8], the percent hexamer formed (ATP + Mg++) worked out at 83.9% and the stoichiometry N stood at 6.
